{"source": "patent US20170320928A1", "about": "(WISCONSIN ALUMNI RESEARCH FOUNDATION, published 2017)", "assay_in_all_cases": "cell-based or functional assay", "key": {"human GLP-1 receptor [1]": {"target": "T1, human GLP-1 receptor (human, UniProt P43220 24-463)"}, "human GLP-1 receptor [2]": {"target": "T1, human GLP-1 receptor", "remark": "listed apart in the source"}, "human GLP-1 receptor [3]": {"target": "T1, human GLP-1 receptor", "remark": "listed apart in the source"}}, "note": "Like-named read-outs stand apart in the source and are kept apart here. Square brackets hold non-standard residues; d marks the D form. Primed or numbered codes have the meaning given here. Ends that are not written are not given here. ACPC = cyclic β-residue replacing an α-residue; APC = 3-aminopyrrolidine-4-carboxylic acid; ACPC″ = not defined here; APC″ = not defined here; Aib = CC(C)(N)C(=O)O"}
{"binder": "H[Aib]EGTFTSD[Aib]S[ACPC]YLE[ACPC]QAA[ACPC]EFI[ACPC]WLV[APC]GRG-NH2", "note": "[α/β-Peptide SEQ. ID. NO: 7]", "values": [{"measurement": "EC50 (nM), cAMP production", "setting": "human GLP-1 receptor [1]", "result": 3.2, "unit": "nM"}, {"measurement": "cAMP production, AVERAGES at M Concentrations: -7", "setting": "human GLP-1 receptor [1]", "result": 88.3}, {"measurement": "cAMP production, AVERAGES at M Concentrations: -8", "setting": "human GLP-1 receptor [1]", "result": 63}, {"measurement": "cAMP production, AVERAGES at M Concentrations: -9", "setting": "human GLP-1 receptor [1]", "result": 35}, {"measurement": "cAMP production, AVERAGES at M Concentrations: -10", "setting": "human GLP-1 receptor [1]", "result": 4.47}, {"measurement": "cAMP production, AVERAGES at M Concentrations: -11", "setting": "human GLP-1 receptor [1]", "result": 3.5}, {"measurement": "cAMP production, AVERAGES at M Concentrations: -12", "setting": "human GLP-1 receptor [1]", "result": 2.81}, {"measurement": "cAMP production, AVERAGES at M Concentrations: -13", "setting": "human GLP-1 receptor [1]", "result": 3.83}, {"measurement": "EC50 nM, cAMP production in HEK293 cells", "setting": "human GLP-1 receptor [2]", "result": 3.2, "unit": "nM"}, {"measurement": "Max Response (% GLP-1 max), cAMP production", "setting": "human GLP-1 receptor [2]", "result": 88, "unit": "% GLP-1 max"}]}
{"binder": "HAEGTFT[ACPC″]DVS[ACPC″]YLE[ACPC″]QAA[ACPC″]EFI[ACPC″]WLV[APC″]GRG-NH2 (reading uncertain)", "note": "[α/β-peptide SEQ. ID. NO: 6]", "values": [{"measurement": "cAMP production, AVERAGES at M Concentrations: -7", "setting": "human GLP-1 receptor [1]", "result": 100}, {"measurement": "cAMP production, AVERAGES at M Concentrations: -8", "setting": "human GLP-1 receptor [1]", "result": 99.2}, {"measurement": "cAMP production, AVERAGES at M Concentrations: -9", "setting": "human GLP-1 receptor [1]", "result": 42.8}, {"measurement": "cAMP production, AVERAGES at M Concentrations: -10", "setting": "human GLP-1 receptor [1]", "result": 18}, {"measurement": "cAMP production, AVERAGES at M Concentrations: -12", "setting": "human GLP-1 receptor [1]", "result": 5.69}, {"measurement": "cAMP production, AVERAGES at M Concentrations: -13", "setting": "human GLP-1 receptor [1]", "result": 5.69}, {"measurement": "EC50 nM, cAMP production in HEK293 cells", "setting": "human GLP-1 receptor [2]", "result": "> 100", "unit": "nM"}]}
{"binder": "HXEGTFTSDXSXYLEXQAAXEFIXWLVXGRG (C-terminal primary amide; non-natural residues are marked only by a key given as a drawing (CHEM-US-00002/00003), positions not readable in the text)", "note": "[SEQ. ID. NO: 13]", "values": [{"measurement": "EC50 (nM), cAMP production", "setting": "human GLP-1 receptor [3]", "result": "> 100", "unit": "nM"}]}
